Measured values: the Human Domainome abundance scans (Beltran et al. 2025)
± gives the uncertainty stated by the source.

B1: RNA-binding E3 ubiquitin-protein ligase MEX3C, residues 325 to 391; numbered along this chain, Q5U5Q3 (parent)
chain: GQTTVQVRVPYRVVGLVVGPKGATIKRIQQQTHTYIVTPSRDKEPVFEVTGMPENVDRAREEIEMHI

Variants of: B1
Assay: abundance fitness (aPCA) (normalised: wild type 0, dead -1); higher = more abundant; growth selection in yeast, the domain comes from the species named
Conditions: Homo sapiens

**Q.** Which abundance fitness does the source give for GQTTVQVRVPYRVVGLVVGPKGITIKRIQQQTHTYIVTPSRDKEPVFEVTGMPENVDRAREEIEMHI here?
**A.** -0.332 ± 0.12

**Q.** With GQTTVQVRVPYRVVGLVVGPKGCTIKRIQQQTHTYIVTPSRDKEPVFEVTGMPENVDRAREEIEMHI as the variant, how does the abundance fitness read?
**A.** -0.352 ± 0.15

**Q.** For GQTTVQVRVPYRVVGLVVGPKGTTIKRIQQQTHTYIVTPSRDKEPVFEVTGMPENVDRAREEIEMHI, which abundance fitness is on record?
**A.** -0.012 ± 0.091

**Q.** Which abundance fitness does the source give for GQTTVQVRVPYRVVGLVVGPKGWTIKRIQQQTHTYIVTPSRDKEPVFEVTGMPENVDRAREEIEMHI here?
**A.** -0.553 ± 0.094

**Q.** For GQTTVQVRVPYRVVGLVVGPKGQTIKRIQQQTHTYIVTPSRDKEPVFEVTGMPENVDRAREEIEMHI, which abundance fitness is on record?
**A.** 0.003 ± 0.097

**Q.** For GQTTVQVRVPYRVVGLVVGPKGETIKRIQQQTHTYIVTPSRDKEPVFEVTGMPENVDRAREEIEMHI, which abundance fitness is on record?
**A.** -0.082 ± 0.076

**Q.** Which abundance fitness does the source give for GQTTVQVRVPYRVVGLVVGPKGNTIKRIQQQTHTYIVTPSRDKEPVFEVTGMPENVDRAREEIEMHI here?
**A.** -0.568 ± 0.13

**Q.** For GQTTVQVRVPYRVVGLVVGPKGFTIKRIQQQTHTYIVTPSRDKEPVFEVTGMPENVDRAREEIEMHI, which abundance fitness is on record?
**A.** -0.868 ± 0.35

**Q.** Which abundance fitness does the source give for GQTTVQVRVPYRVVGLVVGPKGMTIKRIQQQTHTYIVTPSRDKEPVFEVTGMPENVDRAREEIEMHI here?
**A.** -0.027 ± 0.1

**Q.** For GQTTVQVRVPYRVVGLVVGPKGRTIKRIQQQTHTYIVTPSRDKEPVFEVTGMPENVDRAREEIEMHI, which abundance fitness is on record?
**A.** 0.063 ± 0.055

**Q.** For GQTTVQVRVPYRVVGLVVGPKGVTIKRIQQQTHTYIVTPSRDKEPVFEVTGMPENVDRAREEIEMHI, which abundance fitness is on record?
**A.** -0.477 ± 0.068

**Q.** Which abundance fitness does the source give for GQTTVQVRVPYRVVGLVVGPKGDTIKRIQQQTHTYIVTPSRDKEPVFEVTGMPENVDRAREEIEMHI here?
**A.** -0.55 ± 0.18

**Q.** For GQTTVQVRVPYRVVGLVVGPKGHTIKRIQQQTHTYIVTPSRDKEPVFEVTGMPENVDRAREEIEMHI, which abundance fitness is on record?
**A.** -0.258 ± 0.15

**Q.** With GQTTVQVRVPYRVVGLVVGPKGGTIKRIQQQTHTYIVTPSRDKEPVFEVTGMPENVDRAREEIEMHI as the variant, how does the abundance fitness read?
**A.** -0.443 ± 0.052

**Q.** For GQTTVQVRVPYRVVGLVVGPKGLTIKRIQQQTHTYIVTPSRDKEPVFEVTGMPENVDRAREEIEMHI, which abundance fitness is on record?
**A.** -0.293 ± 0.076

**Q.** Which abundance fitness does the source give for GQTTVQVRVPYRVVGLVVGPKGSTIKRIQQQTHTYIVTPSRDKEPVFEVTGMPENVDRAREEIEMHI here?
**A.** -0.08 ± 0.064

**Q.** For GQTTVQVRVPYRVVGLVVGPKRATIKRIQQQTHTYIVTPSRDKEPVFEVTGMPENVDRAREEIEMHI, which abundance fitness is on record?
**A.** -0.504 ± 0.063

**Q.** With GQTTVQVRVPYRVVGLVVGPKTATIKRIQQQTHTYIVTPSRDKEPVFEVTGMPENVDRAREEIEMHI as the variant, how does the abundance fitness read?
**A.** -0.68 ± 0.17

**Q.** For GQTTVQVRVPYRVVGLVVGPKWATIKRIQQQTHTYIVTPSRDKEPVFEVTGMPENVDRAREEIEMHI, which abundance fitness is on record?
**A.** -0.687 ± 0.11

**Q.** With GQTTVQVRVPYRVVGLVVGPKSATIKRIQQQTHTYIVTPSRDKEPVFEVTGMPENVDRAREEIEMHI as the variant, how does the abundance fitness read?
**A.** -0.522 ± 0.1

**Q.** For GQTTVQVRVPYRVVGLVVGPKGATCKRIQQQTHTYIVTPSRDKEPVFEVTGMPENVDRAREEIEMHI, which abundance fitness is on record?
**A.** -0.58 ± 0.47

**Q.** Which abundance fitness does the source give for GQTTVQVRVPYRVVGLVVGPKGATAKRIQQQTHTYIVTPSRDKEPVFEVTGMPENVDRAREEIEMHI here?
**A.** -0.811 ± 0.11

**Q.** With GQTTVQVRVPYRVVGLVVGPKGAQIKRIQQQTHTYIVTPSRDKEPVFEVTGMPENVDRAREEIEMHI as the variant, how does the abundance fitness read?
**A.** -0.818 ± 0.2

**Q.** For GQTTVQVRVPYRVVGLVVGPKGAKIKRIQQQTHTYIVTPSRDKEPVFEVTGMPENVDRAREEIEMHI, which abundance fitness is on record?
**A.** -0.346 ± 0.12

**Q.** With GQTTVQVRVPYRVVGLVVGPKGAMIKRIQQQTHTYIVTPSRDKEPVFEVTGMPENVDRAREEIEMHI as the variant, how does the abundance fitness read?
**A.** -0.786 ± 0.43

**Q.** For GQTTVQVRVPYRVVGLVVGPKGAAIKRIQQQTHTYIVTPSRDKEPVFEVTGMPENVDRAREEIEMHI, which abundance fitness is on record?
**A.** -0.53 ± 0.12

**Q.** Which abundance fitness does the source give for GQTTVQVRVPYRVVGLVVGPKGAPIKRIQQQTHTYIVTPSRDKEPVFEVTGMPENVDRAREEIEMHI here?
**A.** -1.02 ± 0.21

**Q.** With GQTTVQVRVPYRVVGLVVGPKGAYIKRIQQQTHTYIVTPSRDKEPVFEVTGMPENVDRAREEIEMHI as the variant, how does the abundance fitness read?
**A.** -0.589 ± 0.23

**Q.** For GQTTVQVRVPYRVVGLVVGPKGACIKRIQQQTHTYIVTPSRDKEPVFEVTGMPENVDRAREEIEMHI, which abundance fitness is on record?
**A.** -0.574 ± 0.16

**Q.** For GQTTVQVRVPYRVVGLVVGPKGALIKRIQQQTHTYIVTPSRDKEPVFEVTGMPENVDRAREEIEMHI, which abundance fitness is on record?
**A.** -0.875 ± 0.14

**Q.** With GQTTVQVRVPYRVVGLVVGPKGAHIKRIQQQTHTYIVTPSRDKEPVFEVTGMPENVDRAREEIEMHI as the variant, how does the abundance fitness read?
**A.** -0.28 ± 0.25

**Q.** For GQTTVQVRVPYRVVGLVVGPKGASIKRIQQQTHTYIVTPSRDKEPVFEVTGMPENVDRAREEIEMHI, which abundance fitness is on record?
**A.** -0.731 ± 0.13

**Q.** For GQTTVQVRVPYRVVGLVVGPKGANIKRIQQQTHTYIVTPSRDKEPVFEVTGMPENVDRAREEIEMHI, which abundance fitness is on record?
**A.** 0.171 ± 0.12

**Q.** For GQTTVQVRVPYRVVGLVVGPKGARIKRIQQQTHTYIVTPSRDKEPVFEVTGMPENVDRAREEIEMHI, which abundance fitness is on record?
**A.** -0.366 ± 0.051

**Q.** With GQTTVQVRVPYRVVGLVVGPKGAGIKRIQQQTHTYIVTPSRDKEPVFEVTGMPENVDRAREEIEMHI as the variant, how does the abundance fitness read?
**A.** -0.371 ± 0.045

**Q.** Which abundance fitness does the source give for GQTTVQVRVPYRVVGLVVGPKGAIIKRIQQQTHTYIVTPSRDKEPVFEVTGMPENVDRAREEIEMHI here?
**A.** -0.792 ± 0.19

**Q.** With GQTTVQVRVPYRVVGLVVGPKGADIKRIQQQTHTYIVTPSRDKEPVFEVTGMPENVDRAREEIEMHI as the variant, how does the abundance fitness read?
**A.** -0.67 ± 0.16

**Q.** With GQTTVQVRVPYRVVGLVVGPKGAWIKRIQQQTHTYIVTPSRDKEPVFEVTGMPENVDRAREEIEMHI as the variant, how does the abundance fitness read?
**A.** -0.553 ± 0.13

**Q.** With GQTTVQVRVPYRVVGLVVGPKGAVIKRIQQQTHTYIVTPSRDKEPVFEVTGMPENVDRAREEIEMHI as the variant, how does the abundance fitness read?
**A.** -0.517 ± 0.099

**Q.** For GQTTVQVRVPYRVVGLVVGPKGAEIKRIQQQTHTYIVTPSRDKEPVFEVTGMPENVDRAREEIEMHI, which abundance fitness is on record?
**A.** -0.304 ± 0.091
